Test: yeast display, Sf9 membrane polyspecificity reagent, FACS + sequencing; frameworks hold sequencing errors
Method in brief: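 Galactose induction of a Saccharomyces cerevisiae BJ5465 synthetic nanobody display library ran 36–48 hours. The cells were then stained for 1 hour at 4 °C with 10% biotinylated, detergent-solubilized Sf9 membrane reagent, pulled down on streptavidin microbeads and FACS-sorted into low and high (top ~1%) gates on expression and reagent-binding fluorescence. Labels for polyreactivity follow the gate of origin.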

Sequence | polyreactivity (PSR sort gate)
QVQLVESGGGLVQAGGSLRLSCAASGRTFKYYALGWYRQAPGKERELVAAISTRGGRTYADSVKGRFTISRDNAKNTVYLQMNSLKPEDTAVYYCARDSNVGHHGFDYWGQGTQVTVSS | low polyreactivity
QVQLVESGGGLVQAGGSLRLSCAASGGTFKFFAMGLYRQAPGKERELVAAITSGGSTNYADSVKGRFTISRDNAKNTVYLQMNRLKPEDTAVYYCAVDSLPNSPYDYWGQGTQVTVSS | low polyreactivity
QVQLVESGGGLVQAGGSLRLSCAASGSIFHVNAMGWYRQAPGKERELVAGISDGGSTYYADSVKGRFTISRDNAKNTVYLQMNSLKPEDTAVYYCSADDGYTYYWAGYDSWGQGTQVTVSS | low polyreactivity
QDQLVESGGGLVQAGGSLRLSCAASGSIFWLNAMGWYRQAPGKERELVAAITTVDSTYYADSVKGRFTISRDNAKNTVYLQMNSLKPEDTAVYYCAASGRQSRYDYWGQGTQVTVSS | low polyreactivity
QVQLVESGGGLVQAGGSLRLSCAASGSIFSPYAMGWYRQAPGKERELVAAISFRASTTYYADSVKGRFTISRDNAKNTVYLQMNSLKPEDTAVYYCSASALYSWFWGLYDYWGQGTQVTVSS | low polyreactivity
QVQLVESGGGLVQAGGSLRLSCAASGYTFQRYAMGRYRQAPGKERELVATISKRGGSTYYADSVKGRFTISRDNAKNTVYLQMNSLKPDDTAVYYCATATPEYRGYWPWQYAGGDYWGQGTQVTVSS | high polyreactivity
QVQLVESGGGLVQAGGSLRLSCDASGFTFSAYAMGWYRQAPGKERELVAAISTRGGSTRYADSVKGRFTISRDNAKNTVYLQMNSLKPEDTAVYYCADDTRSFYRYDYWGQGTQVTVSS | high polyreactivity
QVQLVESGGGLDQAGGSLRLSCAASGITVTSYVMGWYRQAHWKERELVAAIRWSGGRTYYADSVKGRFTISRDNAKNTVYLQMNSLKPEDTAVYYCNRVTRSHVDYWGQGTQVTVSS | high polyreactivity
QVQLVESGGGLVQAGGSLRLSSASSGRTLVPYAMGWYRQAPGKERELVAAISSGGYTNYADSVKGRFTISRDNAKNTVYLQMNSLKPEDTAVYYCAADYPVRSYDYWGQGTQVTVSS | low polyreactivity
QVQLVESGGGLVQAGGSLRLSCAASGRTFLIYAMGWYRQAPRKEREFVAAIRGRGGSTYYADSVKGRFTISRDNAKNTVYLQMNSLKPEDTAVYYCAATFPGRSFRIRGYGYDYWGQGTQVTVSS | high polyreactivity
QVQLVESGGGLVQAGGSLRLSCAASGYTFKTYPMGSYRQAPGKERELVAAISGSGGSTYYADSVKVRFTISRDNAKNTVYLQMNSLNPEDTAVYYCNASPTTTPNFWRYDYWGQGTQVTVSS | high polyreactivity
QVHLVESGGGLVQAGGSLRLSCAASGRIYKYNAMGWYRQAPGKERELVAAISSGGSTNYADSVKGRFTISRDNAKNTVYLQMNSLKPEDTAVYYCAADGTRVSSFHYLVWLGYWGQGTQVTVSS | low polyreactivity
QFQLVESGGGLVQAGGSLRLSCAASGIIDGNARGWYRQAPGKEREFVATISVNDGNTYYADSVKGRFTISRDNAKNTVYLQMNSLKPEDTAVSYCATPTVYVPIPDLGDYWGQGTQVTVSS | low polyreactivity
QDQLVESGVGLVQAGGSLRLSCAASGRTYFSHTMGWYRQAPGKERQLVAAITRSGGTTYYADSVKGRFTISRDNAKNTVYLQMNSLKPEDTAVYYCAARTSYAFYYPRDYWGQGTQVTVSS | high polyreactivity
QVQLVESGGGLVQAGGSLRLSCAASGSNFLFNAMGWYRQAPGKERELVAAINRDDSTYYADSVKGRFTISRDNAKNTVYLQMNSLKPEDTAVYYCARDYRYTIPYDYWGQGTQVNVSS | low polyreactivity
QVQLVESGGGLVQAGGSLRVSCAASGFTFHKYAMGWYRQAPGKDRELVAVISQSASSTYYADSVKGRFTISRDNAKNTVYFQMNGLKPEDTAVYYCNAKYYRYNRRNYWGQGTQVTVSS | high polyreactivity
QVQLVDSWGGLVQAGGSLRLSCAASGSIFTLYDMGWYRQAPGKERELVAAIDWSGGSTRYADSVKGRFTISRDNAKNTVYLQMNSLKPEDTAVYYCAKDLGGRYGRYRYDYWGQGTQVTVSS | high polyreactivity
QVHLVESGGGLVQAGGSLRLSSAASGSTFYKNAMGWYRQAPGKERELVAGISRRGGRTYYADSVKGRFTISRDNANNTVYLQMNSLKPEDTAVYYCNTGHEEDEYDYWGQGTQVTVSS | low polyreactivity
QVQLVESGGGLVQAGGSLRLSCAASGIIFGRYAMGWYRQAPGKERELVATISRSGGTTYYADSVKGRFTISRDNAKNTVYLQMNSLKPEDTAVYYCAARWTSRYDYWGQGTQVTVSS | high polyreactivity
QVQLVESGGGLVQAGGSLRLSCAASVSIFYEYTMGWYRQAPGKERELVADITEGDGITYYADSVKGRFTISRDNAKNTVYLQMNSLKPEDTAVYYCNADVVQAVTTHYDYWGQGTQVTVSS | low polyreactivity
HVQLVESGGGLVQAGGSLRLSCAASGSTFTYYAMGWYRQAPGKERELVAAITGSDGRTYYADSVKGRFTISRDNAKKTVYLEMNSLKPEDTAVYYCATDVPIREIDEFGYWGQGTQVTVSS | low polyreactivity

Sequence | polyreactivity (PSR sort gate)
QVQLVESGGGLVQAGGSLRLSCAASGRIFTSNTMGWYRQAPGKERELVAAITWRVGSTYYADSVKGRFTISRDNAKNTVYLQMNSLKPEDTAVYYCNAVVLHVTTDNSTFTTDDYWGQGTQVTVSS | low polyreactivity
QVQLVESGGGLVQAGGSLRLSCAASGRIFVRNAMGWYRQAPGKERELVAGISNAGRTNYADSVKGRFTISRDNAKNTVYLQMNSLKPEDTAVYYCAKRPGYDYDYWGQGTQVTVSS | high polyreactivity
QDQLVESGGGLVQAGGSLRLSCAASGRTFSINAMGWYRQAPGKERELVASISSRGTRTNYADSVKGRFTISRDNAKNTVYLQMNSLKPEDTGVYYCAADRYYPYYSAWREYEYWGQGTQVTVSS | high polyreactivity
QVQLVESGGGLVQAGGSLRLSCAASGSIFVEYVMGWYRQAPGKERELVADISWRDGDTYYADSVKGRFTISRDNAKNTVYLQMNSLKPEDTAVYFCAADVIVPESYGYWPLSYYYWGQGTQVTVSS | low polyreactivity
QVQLVESGGGLVQAGGSLRLSCAASGSIFEGYSMGWYRQAPAKERELVARITSDDDSTYYADSVKGRFTISRDNAKNTVYLQMNSLKPEDSAVYYCNADYYWTSLAMDSWGQGTQVTVSS | low polyreactivity
QVQLVESGGGLVQAGGSLRLSCAASGIIFGVYAMGWYRQAPGKERELVAAIDGNGSSTYYADSVKGRFTISRDNAKNSVYLQMNSLKPEDTAVYYCNKDVARYPYGKFDYWGQGTQVTVSS | low polyreactivity
QVQHVESGGGLLQPGGSLRLSCAASGSTFRTNAMGWYRQAPGKERELVAAISRSTGSTYYADSVKGRFTISRDNAKNTVYLQMNSLKTVDSAVFYCNALSGFWGQGTQVTVSS | low polyreactivity
QVQLVESGGGLVQAGGSLRLSCAASGSNFKSYAKGWYRQAPGKERELVAAITYRGGSTYYADSVKGRFTISRDNAKNTVSLQMNSLKPEDTAVYYCAADYQSVGGAEYDYWGQGTQVTVSS | high polyreactivity
QVQLVESGGGLVQAGGSLRLSCAASGSIFSVYARGSYRQAPGKERELVAGITRGGSTYADSVKGRFTISRDNAKNPVYLQMNSLKPEDTAVYYCNAQTRIVKDRLRSDYWGQGTQVTVSS | high polyreactivity
QGQLVESGGGLVQAGGSLRLSCAASGRTFTINAMGWYRQATGKERELHAAISSDGNTNYADSVKGRFTISRDNAKNTVYLQMNSLKPEDTAVYYCAADWVRYSYRHGSYRVYYWGQGTQVTVSS | high polyreactivity
QVQLVESGGGLVQAGGSLRLSCAASGRTFARYAMGWYRPAPGKERELVAAISSSGVSSYYADSVKGRFTISRDNAKNTVYLQMNSLKPDDTAVYYCVTYRNWWYDYWGQGTQVTVSS | high polyreactivity
QVQLVESAGGLVQAGGSLRLSCAASGRTIDSYTMGWYRQAPGKERELVASISKRGGSTYYADSVKERFTISRDNAKNTVYLQMNSLKPQDTAVYYCATKSYYVSYYRYRVDYWGQVTQVTVSS | high polyreactivity
QVQLVESGGGLVQAGGSLRLSCAASGITFRLYAMGWYRQAPGKERELVAAITGSGGRTYYADSVKGRFTISRDNAKNTVYLQMNSLNPEDTAVFYCNVYPPYAMDYWGQGTQVTVSS | high polyreactivity
QVQLVESGGGLVQAGGSLRLSCAASGRTFYQYDMGWYRQAPGKERELVAAIDWSGGSTYYADSVKGRFTISRDNAKNTVYLQMNSLKPEDTAVYYCNKDSHISTAYDYWGQGTQVTVSS | low polyreactivity
QVQLVESGGGLVHAGGSLRLSCAASGRTFHGYAMGWYIQAPGKERELVAAITSSGARTYYADSVKGRFTISRDNAKNTVYLQMNSLKPEDTAVYYCAVNWLRGMDWGQGTQVTVSS | high polyreactivity
QVQLVESGGGLVQAGGSLRLSCAASVRTFGQNTMGWYIQAPGKEREFVAAIDFNGGSTYYADSVKGRFTISRDNAKNTVYLQMNSLKPEDTAVYYCAADIYFYYYGSYDYWGQGTQVTVSS | low polyreactivity
QVQLVESGGGLVQAGGSLRLSCAASGSIFTGNAMGWYRQAPGKERELVAAITRTGSTNYADSVKGRFTISRDNAKNTVYLQMNSLKPEDTAVYYCATDRTFTISNYDYWGQGTQVTVSS | low polyreactivity
QVQLVESGGGLVQAGGSLRLSCAASGSTFKKYVMGWYRQAPGKERELVAAISGRGGSTYYADSVKGRFTISRDNAKNTVYLQMNSLKPEDTAVYYCNARKQTARFDSWGQGTQVTVSS | high polyreactivity
QVQLVESGGGLVQAGGSLRLSSAASGSTFVQNAMGWYRQAPGKERELVAAISRGGTSTYYADSVKGRFTISRDNAKNTVYLQMNSLKPEDTAVYYCAAYTSYLGYPYDYWGQGTQVTVSS | high polyreactivity
QVQLVESGGGLVQAGGSLRLSCAASGSTFGSYAMGWYRQAPGKERELVAAITASGGSTYYADSVKGRFTISRDNGKNTVYLQMKSLKPEDTAVYYCAADTTYIPLSIEYDYWGQGTQVTVSS | low polyreactivity

— the nanobody polyreactivity screen of Harvey et al. (2022)
